One block for each binder: values may come before it.
Key:
[1] = biological target: T1, IL-19 bound on IL-20R2-fc (IL-19/IL-20R2-fc binary complex) (human, UniProt Q9UHD0 25-177); assay: SPR co-injection: IL-19 fixed at 250 nM with IL-20R1 (1000-7.81 nM) over IL-20R2-fc; 250 nM IL-19 sensorgram subtracted; 1:1 fit, apparent value
Protocol: (§1) FIGS. 12A-12H are graphs showing IL19/IL-20 receptor interactions and complex stability. SPR sensorgrams, data fits (black lines), KD values, and residual errors obtained for complexes described at the top of each panel. Panels are labeled as injected soluble proteins, followed by a semicolon (:), then the protein coupled to chip surface, IL-20R1 or IL-20R2. FIGS. 12A and 12B show injection of IL-19 and IL-20 (max conc.=10 μM, 2 fold diluted to 0.625 μM) over IL-20R1. FIGS. 12C and 12D show injection of IL-19 (max conc.=500 nM, 2-fold diluted to 3.91 nM) or IL-20 (max conc.=2000 nM, 2-fold diluted to 62.5 nM) over IL-20R2. FIGS. 12E-12H show IL-19 and IL-20 (fixed at 250 nM) mixed with different concentrations of IL-20R1, or IL-22R1, (max conc.=1000 nM, 2-fold diluted to 7.81 nM) and injected over IL-20R2. To estimate R1 chain affinity/complex stability, the contribution of the ligand was removed by using the 250 nM IL-19, or IL-20, sensorgram as the blank subtraction. All sensorgrams were fit to 1:1 binding models.
(§2) Surface Plasmon Resonance Experiments SPR experiments were performed on Biacore T-100, and T-200, (GE healthcare, Waukesha, Wis.) systems. […] Soluble proteins were injected for 75-90 seconds (30 uL/min) over the surfaces, and the dissociation phase was followed for 75-120 seconds depending on the stability of the complex being analyzed. […]

[2] = biological target: T2, IL-20 bound on IL-20R2-fc (IL-20/IL-20R2-fc binary complex) (human, UniProt Q9NYY1 25-176); assay: SPR co-injection: IL-20 fixed at 250 nM with IL-20R1 (1000-7.81 nM) over IL-20R2-fc; 250 nM IL-20 sensorgram subtracted; 1:1 fit, apparent value
Protocol: as §1, §2

[3] = biological target: T1, IL-19 bound on IL-20R2-fc …; assay: SPR co-injection: IL-19 fixed at 250 nM with IL-20R1 (1000-7.81 nM) over IL-20R2-fc; 250 nM IL-19 sensorgram subtracted; 1:1 fit, apparent KD (KDapp)
Protocol: (§3) To estimate R1 chain affinity/complex stability, the contribution of the ligand was removed by using the 250 nM IL-19, or IL-20, sensorgram as the blank subtraction. All sensorgrams were fit to 1:1 binding models.
(§4) To estimate the stability of IL-20 (IL-20/IL-20R1/IL-20R2 and IL-20/IL-22R1/IL-20R2) and IL-19 (IL-19/IL-20R1/IL-20R2) ternary complexes (FIG. 1), IL-19, or IL-20, was co-injected with soluble IL-20R1 over a biacore chip coupled with IL-20R2. […] The same results, although with different KDapp values, were obtained by evaluating ternary complex stability by injecting soluble IL-20R2 and IL19, or IL-20, over biacore chip surfaces of IL-20R1 or IL-22R1 (FIG. 13).
(§5) Surface Plasmon Resonance Experiments SPR experiments were performed on Biacore T-100, and T-200, (GE healthcare, Waukesha, Wis.) systems. Soluble IL-20R2 was amine coupled (100-130 RU) to CM5 research grade biacore chips in 10 mM sodium acetate, pH 5.0. IL-20R1-FC and IL-20R2-FC were coupled (60-120 RU) to CM5 chips using an anti-FC Ab coupling kit using the manufacturer's instructions (GE healthcare, Waukesha, Wis.). […] Soluble proteins were injected for 75-90 seconds (30 uL/min) over the surfaces, and the dissociation phase was followed for 75-120 seconds depending on the stability of the complex being analyzed. […]

[4] = biological target: T2, IL-20 bound on IL-20R2-fc …; assay: SPR co-injection: IL-20 fixed at 250 nM with IL-20R1 (1000-7.81 nM) over IL-20R2-fc; 250 nM IL-20 sensorgram subtracted; 1:1 fit, apparent KD (KDapp)
Protocol: as §3, §4, §5

[5] = biological target: T3, IL-20/IL-20R2 binary complex (human, UniProt Q9NYY1 25-176; Q6UXL0 30-230); assay: SPR co-injection: IL-20 fixed at 250 nM with IL-22R1 (1000-7.81 nM) over amine coupled IL-20R2; 250 nM IL-20 sensorgram subtracted; 1:1 fit, apparent value
T3 construct: also called 20 + 20R2; IL-20+soluble IL-20R2
T3 chain 1: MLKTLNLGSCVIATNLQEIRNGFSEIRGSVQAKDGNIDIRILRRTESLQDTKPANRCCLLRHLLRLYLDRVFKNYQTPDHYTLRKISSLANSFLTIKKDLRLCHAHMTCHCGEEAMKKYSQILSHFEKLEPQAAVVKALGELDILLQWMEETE
T3 chain 2: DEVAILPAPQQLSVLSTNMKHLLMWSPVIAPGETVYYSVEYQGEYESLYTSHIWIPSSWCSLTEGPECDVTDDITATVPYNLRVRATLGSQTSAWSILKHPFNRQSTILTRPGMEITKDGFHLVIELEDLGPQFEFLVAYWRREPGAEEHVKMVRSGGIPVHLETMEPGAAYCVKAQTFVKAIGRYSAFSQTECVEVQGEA
Protocol: as §1, §2

[6] = biological target: T3, IL-20/IL-20R2 binary complex; assay: SPR co-injection: IL-20 fixed at 250 nM with IL-22R1 (1000-7.81 nM) over amine coupled IL-20R2; 250 nM IL-20 sensorgram subtracted; 1:1 fit, apparent KD (KDapp)
Protocol: as §1, §2

IL-20 [7] = biological target: T4, IL-20 (human, UniProt Q9NYY1 25-176); assay: SPR, IL-20 over IL-20R2 (FIG. 12D)
T4 construct: The crystal model holds residues 24-176; also called Interleukin-20; IL-20b
T4 sequence: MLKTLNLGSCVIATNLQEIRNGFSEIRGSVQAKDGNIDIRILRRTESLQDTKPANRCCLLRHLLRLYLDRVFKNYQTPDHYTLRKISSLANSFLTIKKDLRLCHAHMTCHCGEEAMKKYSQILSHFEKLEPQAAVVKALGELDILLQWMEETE
Protocol: as §1, §2

IL-20 [8] = biological target: T4, IL-20; assay: SPR, site KD as listed in Table 5
IL-19 = biological target: T5, IL-19 (human, UniProt Q9UHD0 25-177); assay: SPR (Biacore), IL-19 (500-3.91 nM) over IL-20R2-fc captured by anti-FC Ab, 1:1 fit
T5 construct: also called Interleukin-19; IL-19a
T5 sequence: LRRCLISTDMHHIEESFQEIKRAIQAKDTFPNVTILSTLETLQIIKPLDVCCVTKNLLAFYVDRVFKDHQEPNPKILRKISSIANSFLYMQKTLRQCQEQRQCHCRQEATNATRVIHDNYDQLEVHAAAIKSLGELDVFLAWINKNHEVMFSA
Protocol: as §1, with “SPR” for “FIGS. 12A-12H are graphs showing IL19/IL-20 receptor interactions and complex stability. SPR”
as §5, with “Wis.). All binding experiments were performed in running buffer consisting of 10 mM Hepes, pH 7.4, 150 mM NaCl, 0.04% P20, and 0.1 mg/mL bovine serum albumin (Sigma, St. Louis, Mo.). No regeneration was performed between sample injections on IL-20R2 amine-coupled surfaces.” for “Wis.).”
IL-19/IL-20R2 and IL-20/IL-20R2 interactions were determined by SPR methods with IL-20R2 attached to a biacore chip by amine coupling, or as an IL-20R2-FC fusion protein.

IL-20 [9] = biological target: T4, IL-20; assay: SPR (Biacore), IL-20 (2000-62.5 nM) over IL-20R2-fc captured by anti-FC Ab, 1:1 fit

koff [1]: 0.139 s⁻¹
kon [1]: 44500 M⁻¹ s⁻¹
koff [2]: 0.0171 s⁻¹
kon [2]: 53700 M⁻¹ s⁻¹
Kd [3]: 3120 nM
Kd [4]: 319 nM
B1: soluble IL-20R1 (receptor)
chain: VPCVSGGLPKPANITFLSINMKNVLQWTPPEGLQGVKVTYTVQYFIYGQKKWLNKSECRNINRTYCDLSAETSDYEHQYYAKVKAIWGTKCSKWAESGRFYPFLETQIGPPEVALTTDEKSISVVLTAPEKWKRNPEDLPVSMQQIYSNLKYNVSVLNTKSNRTWSQCVTNHTLVLTWLEPNTLYCVHVESFVPGPPRRAQPSEKQCARTLKDQSS

koff [5]: 0.0893 s⁻¹
kon [5]: 65500 M⁻¹ s⁻¹
Kd [6]: 1360 nM
B2: IL-22R1 (sIL-22R1DDQ) (receptor)
chain: HAPEDPSDLLQHVKFQSSNFENILTWDSGPEGTPDTVYSIEYKTYGERDWVAKKGCQRITRKSCDLTVETGDLQELYYARVTAVSAGGRSATKMTDRFSSLQHTTLKPPDVTCISKVRSIQMIVHPTPTPIRAGDGHRLTLEDIFHDLFYHLELQVNRTYQMHLGGKQREYEFFGLTPDTEFLGTIMICVPTWAKESAPYMCRVKTLPDRT

Kd (IL-20 [7]): 697 nM
Kd (IL-20 [8]): 687 nM
Kd (IL-19): 105 nM
koff (IL-19): 0.0242 s⁻¹
kon (IL-19): 230000 M⁻¹ s⁻¹
Kd (IL-20 [9]): 686 nM
koff (IL-20 [9]): 0.219 s⁻¹
kon (IL-20 [9]): 319000 M⁻¹ s⁻¹
B3: IL-20R2-FC (Fc fusion)
chain: DEVAILPAPQQLSVLSTNMKHLLMWSPVIAPGETVYYSVEYQGEYESLYTSHIWIPSSWCSLTEGPECDVTDDITATVPYNLRVRATLGSQTSAWSILKHPFNRQSTILTRPGMEITKDGFHLVIELEDLGPQFEFLVAYWRREPGAEEHVKMVRSGGIPVHLETMEPGAAYCVKAQTFVKAIGRYSAFSQTECVEVQGEAGSGGGGPSVFIFPPKIKDVLMISLSPIVTCVVVDVSEDDPDVQISWFVNNVEVHTAQTQTHREDYNSTLRVVSALPIQHQDWMSGKEFKCKVNNKDLPAPIERTISKPKGSVRAPQVYVLPPPEEEMTKKQVTLTCMVTDFMPEDIYVEWTNNGKTELNYKNTEPVLDSDGSYFMTSKLRVEKKNWVERNSYSCSVVHEGLHNHHTTKSFGGCGTPASGGLNDIFEAQKIEWHE
notes: also called IL-20-FC

From patent publication US20150203556A1 (UAB RESEARCH FOUNDATION, published 2015)
